Results on 94 variants are retold here after the supplement of paper PMC10567573.

B1: GMCL1 (parent)
chain: RPDTGDDAAGHGFCYCAGSHKRKR
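Note: lentivirally expressed fusions sorted by FACS into six bins by GFP to DsRed ratio, PSI derived from sequencing read proportions per bin multiplied by bin number.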

The variants in this series derive from B1. Briefly: protein stability index of a GFP-peptide fusion (GPS, HEK-293T) (PSI 1-6); higher = more stable. Conditions: c terminus: a fixed tail appended.
In the case of RPDTGDDAAGHGFCYCAASHKRKR [G18A], the protein stability index was 3.24.
Regarding RPDTGDDAAGHGFCYHAGSHKRKR [C16H], the protein stability index came out at 3.87.
With RPDTGDDAAGHGFCYYAGSHKRKR [C16Y] the figure was 4.09; with RPDTGDDAAGHGFCYGAGSHKRKR [C16G], 4.85.
Regarding RPDTGDDAAGHGFCYDAGSHKRKR [C16D], the protein stability index was 5.04.
With RPDTGDDAAGHGFCYTAGSHKRKR [C16T] the figure was 4.74; with RPDTGDDAAGHGFCYVAGSHKRKR [C16V], 4.72; with RPDTGDDAAGHGFCYEAGSHKRKR [C16E], 5.33.
With RPDTGDDAAGHGFCYLAGSHKRKR [C16L] the figure was 4.11; with RPDTGDDAAGHGFCYFAGSHKRKR [C16F], 4.72; with RPDTGDDAAGHGFCYWAGSHKRKR [C16W], 4.36.
Take RPDTGDDAAGHGFCYSAGSHKRKR [C16S]: the protein stability index was determined as 4.97.
Then RPDTGDDAAGHGFCYKAGSHKRKR [C16K], with 4.81.
Then RPDTGDDAAGHGFCYNAGSHKRKR [C16N], with 4.56; and RPDTGDDAAGHGFCYMAGSHKRKR [C16M], with 4.17; and RPDTGDDAAGHGFCYAAGSHKRKR [C16A], with 4.94.
With RPDTGDDAAGHGFCYPAGSHKRKR [C16P] the figure was 4.71; with RPDTGDDAAGHGFCYQAGSHKRKR [C16Q], 4.92.
As for RPDTGDDAAGHGFCYIAGSHKRKR [C16I], the protein stability index came out at 4.57.
With RPDTGDDAAGHGFCYRAGSHKRKR [C16R] the figure was 4.59; with RPDTGDDAAGHGFCNCAGSHKRKR [Y15N], 2.43; with RPDTGDDAAGHGFCVCAGSHKRKR [Y15V], 2.8.
Then RPDTGDDAAGHGFCGCAGSHKRKR [Y15G], with 3.35.
Then RPDTGDDAAGHGFCKCAGSHKRKR [Y15K], with 2.5; and RPDTGDDAAGHGFCLCAGSHKRKR [Y15L], with 2.84.
Regarding RPDTGDDAAGHGFCICAGSHKRKR [Y15I], the protein stability index came to 3.09.
On to RPDTGDDAAGHGFCDCAGSHKRKR [Y15D], for which the protein stability index is 3.36.
Then RPDTGDDAAGHGFCSCAGSHKRKR [Y15S], with 2.77; and RPDTGDDAAGHGFCECAGSHKRKR [Y15E], with 2.77; and RPDTGDDAAGHGFCCCAGSHKRKR [Y15C], with 2.68.
Then RPDTGDDAAGHGFCQCAGSHKRKR [Y15Q], with 2.74; and RPDTGDDAAGHGFCWCAGSHKRKR [Y15W], with 2.82.
Then RPDTGDDAAGHGFCMCAGSHKRKR [Y15M], with 2.89; and RPDTGDDAAGHGFCHCAGSHKRKR [Y15H], with 2.98.
For the variant RPDTGDDAAGHGFCTCAGSHKRKR [Y15T], the protein stability index worked out at 2.51.
Then RPDTGDDAAGHGFCFCAGSHKRKR [Y15F], with 2.6.
Consider RPDTGDDAAGHGFCACAGSHKRKR [Y15A], for which the protein stability index was found to be 3.12.
With RPDTGDDAAGHGFCRCAGSHKRKR [Y15R] the figure was 3.41; with RPDTGDDAAGHGFCPCAGSHKRKR [Y15P], 3.36; with RPDTGDDAAGHGFCYCTGSHKRKR [A17T], 3.13.
With RPDTGDDAAGHGFCYCDGSHKRKR [A17D] the figure was 3.68; with RPDTGDDAAGHGFCYCSGSHKRKR [A17S], 2.77.
With RPDTGDDAAGHGFCYCPGSHKRKR [A17P] the figure was 3.7; with RPDTGDDAAGHGFCYCQGSHKRKR [A17Q], 3.02.
On to RPDTGDDAAGHGFCYCVGSHKRKR [A17V], for which the protein stability index came to 2.56.
Turning to RPDTGDDAAGHGFCYCMGSHKRKR [A17M], the protein stability index amounted to 2.99.
With RPDTGDDAAGHGFCYCHGSHKRKR [A17H] the figure was 2.29; with RPDTGDDAAGHGFCYCGGSHKRKR [A17G], 2.9.
Then RPDTGDDAAGHGFCYCIGSHKRKR [A17I], with 2.97; and RPDTGDDAAGHGFCYCNGSHKRKR [A17N], with 3.61; and RPDTGDDAAGHGFCYCCGSHKRKR [A17C], with 2.05.
As to RPDTGDDAAGHGFCYCEGSHKRKR [A17E], the protein stability index amounted to 3.61.
With RPDTGDDAAGHGFCYCWGSHKRKR [A17W] the figure was 3.01.
Then RPDTGDDAAGHGFCYCKGSHKRKR [A17K], with 2.82.
Then RPDTGDDAAGHGFCYCYGSHKRKR [A17Y], with 3.25.
For the variant RPDTGDDAAGHGFCYCLGSHKRKR [A17L], the protein stability index is 2.59.
As to RPDTGDDAAGHGFCYCRGSHKRKR [A17R], the protein stability index worked out at 2.9.
Consider RPDTGDDAAGHGFCYCFGSHKRKR [A17F], for which the protein stability index stood at 2.2.
With RPDTGDDAAGHGFSYCAGSHKRKR [C14S] the figure was 5.02.
Regarding RPDTGDDAAGHGFVYCAGSHKRKR [C14V], the protein stability index was 4.3.
With RPDTGDDAAGHGFKYCAGSHKRKR [C14K] the figure was 4.98; with RPDTGDDAAGHGFMYCAGSHKRKR [C14M], 4.9.
Then RPDTGDDAAGHGFFYCAGSHKRKR [C14F], with 3.88; and RPDTGDDAAGHGFQYCAGSHKRKR [C14Q], with 4.7.
Regarding RPDTGDDAAGHGFHYCAGSHKRKR [C14H], the protein stability index was 4.7.
Then RPDTGDDAAGHGFGYCAGSHKRKR [C14G], with 4.85; and RPDTGDDAAGHGFEYCAGSHKRKR [C14E], with 4.99.
With RPDTGDDAAGHGFPYCAGSHKRKR [C14P] the figure was 4.31.
Consider RPDTGDDAAGHGFDYCAGSHKRKR [C14D], for which the protein stability index worked out at 4.75.
Then RPDTGDDAAGHGFWYCAGSHKRKR [C14W], with 3.82.
Then RPDTGDDAAGHGFIYCAGSHKRKR [C14I], with 4.3; and RPDTGDDAAGHGFTYCAGSHKRKR [C14T], with 4.89.
In the case of RPDTGDDAAGHGFLYCAGSHKRKR [C14L], the protein stability index worked out at 3.66.
Then RPDTGDDAAGHGFNYCAGSHKRKR [C14N], with 4.62; and RPDTGDDAAGHGFAYCAGSHKRKR [C14A], with 4.73; and RPDTGDDAAGHGFYYCAGSHKRKR [C14Y], with 4.88.
With RPDTGDDAAGHGFRYCAGSHKRKR [C14R] the figure was 4.87.
With RPDTGDDAAGHGQCYCAGSHKRKR [F13Q] the figure was 3.9.
Turning to RPDTGDDAAGHGGCYCAGSHKRKR [F13G], the protein stability index was found to be 3.69.
With RPDTGDDAAGHGMCYCAGSHKRKR [F13M] the figure was 3.25; with RPDTGDDAAGHGICYCAGSHKRKR [F13I], 3.02; with RPDTGDDAAGHGVCYCAGSHKRKR [F13V], 3.55.
Then RPDTGDDAAGHGPCYCAGSHKRKR [F13P], with 3.55; and RPDTGDDAAGHGKCYCAGSHKRKR [F13K], with 3.35; and RPDTGDDAAGHGDCYCAGSHKRKR [F13D], with 3.82.
Then RPDTGDDAAGHGYCYCAGSHKRKR [F13Y], with 2.65; and RPDTGDDAAGHGNCYCAGSHKRKR [F13N], with 3.4; and RPDTGDDAAGHGTCYCAGSHKRKR [F13T], with 3.34.
On to RPDTGDDAAGHGWCYCAGSHKRKR [F13W], for which the protein stability index was 3.45.
For RPDTGDDAAGHGHCYCAGSHKRKR [F13H], the protein stability index amounted to 3.86.
With RPDTGDDAAGHGLCYCAGSHKRKR [F13L] the figure was 2.87; with RPDTGDDAAGHGECYCAGSHKRKR [F13E], 3.99.
Then RPDTGDDAAGHGSCYCAGSHKRKR [F13S], with 2.84.
Then RPDTGDDAAGHGRCYCAGSHKRKR [F13R], with 2.94.
